Measured values: patent US20240390423A1 (published 2024)

T1: CTNNB1 wild type (S37) peptide on HLA-A*02:01 (human)
T1 peptide: YLDSGIHSGA

T2: CTNNB1 S37F peptide on HLA-A*02:01 (human)
T2 peptide: YLDSGIHFGA


Tests used:
[1] = biological target: mutated CTNNB1^S37F peptide presented by HLA-A2 on target cells (T2 cells pulsed with the peptide; HUTU80 tumor cells with endogenous CTNNB1^S37F) (human); test: cell-based or functional assay
[2] = biological target: T1, CTNNB1 wild type (S37) peptide on …; test: activation reporter or marker
[3] = biological target: T2, CTNNB1 S37F peptide on HLA-A*02:01; test: CD69 by flow cytometry on GFP+ JRT (J.RT3-T3.5) cells transduced with pCDH-CTNNB1; T2 cells pulsed with a 10x dilution series of peptide from 1 µg/ml, 16 h; dose-dependent; full-length, on cells
[4] = biological target: T2, CTNNB1 S37F peptide on HLA-A*02:01; test: CD137 by flow cytometry on GFP+ CD8+ PBMC-derived T cells transduced with pCDH-CTNNB1; T2 cells pulsed with a 10x dilution series of peptide from 1 µg/ml, 24 h; dose-dependent; full-length, on cells

Binder	percentage of CD8+CD137+ cells in gated GFP+ transduced PBMC T cells after 24 h co-culture with peptide-pulsed T2 cells; lowest peptide concentration giving a twofold increase over no peptide [1]	percentage of CD69+ cells in gated GFP+ JRT cells after 16 h co-culture with peptide-pulsed T2 cells; lowest peptide concentration giving a twofold increase over no peptide [1]	binding result [2]	lowest activating peptide concentration (twofold CD69+ over no peptide) [3]	lowest activating peptide concentration (twofold CD8+CD137+ over no peptide) [4]
inventive TCR specific for the mutated CTNNB1^S37F peptide in the context of HLA-A2, with murine constant regions, expressed from lentiviral vector pCDH-CTNNB1 … (TCR) TCR alpha: AQKVTQAQTEISVVEKEDVTLDCVYETRDTTYYLFWYKQPPSGELVFLIRRNSFDEQNEISGRYSWNFQKSTSSFNFTITASQVVDSAVYFCALSERPGYSTLTFGKGTMLLVSPDIQNPEPAVYQLKDPRSQDSTLCLFTDFDSQINVPKTMESGTFITDKTVLDMKAMDSKSNGAIAWSNQTSFTCQDIFKETNATYPSSDVPCDATLTEKSFETDMNLNFQNLSVMGLRILLLKVAGFNLLMTLRLWSS TCR beta: DAGVIQSPRHEVTEMGQEVTLRCKPISGHDYLFWYRQTMMRGLELLIYFNNNVPIDDSGMPEDRFSAKMPNASFSTLKIQPSEPRDSAVYFCASGTPSTYEQYFGPGTRLTVTEDLRNVTPPKVSLFEPSKAEIANKQKATLVCLARGFFPDHVELSWWVNGKEVHSGVSTDPQAYKESNYSYCLSSRLRVSATFWHNPRNHFRCQVQFHGLSEEDKWPEGSPKPVTQNISAEAWGRADCGITSASYQQGVLSATILYEILLGKATLYAVLVSTLVVMAMVKRKNS	1 ng/mL	0.5 ng/mL			
CTNNB1^S37F peptide specific TCR (the inventive TCR) (TCR, V domains shown) Valpha: AQKVTQAQTEISVVEKEDVTLDCVYETRDTTYYLFWYKQPPSGELVFLIRRNSFDEQNEISGRYSWNFQKSTSSFNFTITASQVVDSAVYFCALSERPGYSTLTFGKGTMLLVSP Vbeta: DAGVIQSPRHEVTEMGQEVTLRCKPISGHDYLFWYRQTMMRGLELLIYFNNNVPIDDSGMPEDRFSAKMPNASFSTLKIQPSEPRDSAVYFCASGTPSTYEQYFGPGTRLTVT			no recognition	~0.5 ng/mL	1 ng/mL
